Measurements: the Human Domainome abundance scans (Beltran et al. 2025)

B1: TOX high mobility group box family member 3, residues 256 to 323; numbered along this chain, O15405 (parent)
chain: QKPVSAYALFFRDTQAAIKGQNPNATFGEVSKIVASMWDSLGEEQKQVYKRKTEAAKKEYLKALAAYR
B2: POU domain, class 3, transcription factor 1, residues 247 to 324; numbered along this chain, Q03052 (parent)
chain: EDAPSSDDLEQFAKQFKQRRIKLGFTQADVGLALGTLYGNVFSQTTICRFEALQLSFKNMCKLKPLLNKWLEETDSSS

Variants of: B1
Experiment: abundance fitness (aPCA) (normalised: wild type 0, dead -1); higher = more abundant; growth selection in yeast, the domain comes from the species named
Settings: Homo sapiens

Abundance fitness, by site and new letter:
E54: G -0.328, M -0.161, Q -0.158, V -0.239, L -0.102, P -0.118, W -0.331, S -0.211, I -0.012, F -0.193, T -0.237, N -0.117, D -0.054, R -0.203, C -0.244
A63: L -0.395, M -0.178, N 0.107, G 0.201, D 0.08, Q 0.119, W -0.178, K 0.173, Y -0.167, P 0.111, S 0.132, E 0.285, C -0.105, V -0.212, I -0.34, H 0.155, F -0.637
Y60: K 0.128, W -0.258, S 0.039, A 0.043, R -0.129, P -0.052, E 0.08, V -0.073, F 0.068, T 0.148, Q 0.128, G -0.101, N -0.236, I -0.556
L64: R 0.088, P 0.33, A -0.093, Y -0.172, S 0.128, N 0.173, M -0.031, T 0.236, D 0.323, H 0.285, K 0.205, F -0.273, C 0.153, G 0.241, I 0.146, E 0.354, W -0.227, V 0.131
T53: N -0.104, A 0.136, C -0.092, G 0.073, M -0.046, H 0.12, V 0.146, P -0.326, S 0.113, Y 0.276, D -0.022, E 0.257, W -0.152, L -0.09, R -0.111, K 0.001, F 0.157
A65: G 0.067, H -0.081, V -0.049, W -0.082, Q 0.004, S 0.042, P 0.117, F -0.111, N 0.098, K 0.036, T 0.081, L -0.03, R -0.037, E 0.113, D 0.078, Y -0.48
A55: E 0.076, C -0.246, Y -0.276, N 0.001, F -0.211, Q -0.001, K 0.049, I -0.148, S -0.029, L -0.058, T -0.041, R -0.083, W -0.297, P -0.157, G -0.022, H 0.015, D -0.104
A56: R -0.201, P -0.233, Q -0.017, M -0.063, S -0.146, V -0.054, I -0.167, K 0.17, L -0.109, W -0.463, E -0.007, C -0.104, Y -0.102, F -0.548, G -0.017
K52: Q -0.291, V -0.584, S -0.145, P -0.303, T -0.426, R 0.008, Y -0.28, W -0.617
A66: Q 0.093, Y -0.111, E 0.218, R 0.056, V 0.064, W -0.103, D 0.509, S 0.061, M -0.097, P 0.182, T 0.184, F -0.453, N 0.135, K -0.221, I -0.333, C -0.038, H 0.124
K57: N 0.042, T -0.093, Q -0.021, V -0.252, D 0.025, M 0.036, L -0.346, A -0.034, G -0.125, R -0.164, S -0.052, C -0.275, Y -0.282, W -0.381, F -0.23, P -0.165
K62: Q -0.118, R -0.002, C -0.3, N -0.069, F -0.519, A -0.022, Y -0.396, L -0.344, I -0.538, P -0.142, M -0.205, W -0.838, S -0.092, V -0.458, G -0.133, E -0.006, D 0.019
L61: Y -0.087, D 0.319, T 0.135, E -0.064, N -0.068, W -0.19, R 0.015, F -0.213, I -0.029, C -0.014, V 0.119, K 0.247, Q 0.146, S 0.22, G 0.08, M -0.138, H 0.134
Y67: N 0.288, K 0.244, Q 0.281, F -0.106, W -0.158, H 0.155, P 0.352, T 0.274, C 0.208, I -0.012, A 0.263, L -0.044, E 0.138, M 0.161, D 0.256, R 0.306, V 0.323, G 0.263
E59: V -0.3, G -0.242, A -0.122, C -0.366, P -0.061, Y -0.577, S -0.166, W -0.573, L -0.39, D 0.047, N -0.246, I -0.663, M -0.51, K 0.024, F -0.443, Q -0.205, R -0.162, H -0.744, T -0.083
R68: Y -0.292, M -0.247, N 0.198, H -0.137, G -0.01, I -0.65, L -0.126, P 0.297, V -0.355, F -0.33, K 0.101, E 0.197, T -0.007, W -0.322, A -0.07, Q -0.044
K58: G -0.068, P -0.113, Q 0.039, L -0.135, H -0.242, V 0.03, N -0.089, S -0.051, W -0.351, A 0.016, Y -0.279, M -0.078, R -0.043, E 0.044, I -0.204, D -0.01, C -0.095, T -0.079

Variants of: B2
Experiment: as above
Settings: Homo sapiens

Abundance fitness: each site, then its substitutions
A3: N 0.444, H 0.258, Y -0.033, R 0.222, Q 0.327, V -0.08, W 0.098, E -0.049, G -0.053, C 0.172, S 0.238, F 0.281, D -0.164, M 0.363, P 0.051, T 0.238, L 0.362
P4: F -0.366, A 0.008, G -0.098, C 0.126, E -0.043, D -0.134
D2: Q 0.267, G 0.411, A 0.217, T 0.459, M 0.342, I 0.413, W 0.001, V 0.171, N 0.256, F 0.166, K 0.452, E 0.41, H 0.29, L 0.151, S 0.453, R 0.312, Y 0.197, P 0.252, C 0.081
E1: N -0.013, Y 0.05, A -0.211, T 0.088, G -0.031, V 0.103, W 0.144, S 0.126, R 0.102, Q 0.209, K 0.066, M 0.319, C 0.281, L 0.135, F 0.118, D 0.359, I 0.3
